Laboratory results as given in patent US7572444B2, “Binding proteins specific for human matriptase” (Amgen Fremont Inc., priority 2004, dated 2009).

Molecular target: T1, Biotinylated-MTSP1 (Homo sapiens, UniProt Q9Y5Y6)
T1 sequence (Q9Y5Y6 615-855 limits assumed): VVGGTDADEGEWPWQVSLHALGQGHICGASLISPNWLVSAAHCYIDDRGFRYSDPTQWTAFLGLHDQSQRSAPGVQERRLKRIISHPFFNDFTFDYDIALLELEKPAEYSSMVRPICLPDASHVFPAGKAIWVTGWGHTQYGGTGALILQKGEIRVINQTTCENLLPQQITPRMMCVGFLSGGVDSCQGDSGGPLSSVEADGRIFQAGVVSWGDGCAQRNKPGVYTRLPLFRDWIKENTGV
Assay: Competition binding assay on sc95/96 coated plate
Conditions: 125 ng/ml Biotinylated-MTSP1; HAI-1 titrated from 2 μg/ml, sc95/96 from 10 μg/ml
Description: This experiment was set-up to determine whether or not HAI-1 (the natural inhibitor of MT-SP1) would compete for binding to MT-SP1 with 95/96.
Bound MTSP was then detected with SA-pod.

B1: HAI-1: the natural inhibitor of MT-SP1 (protein, UniProt O43278 36-529, looked up)
Kunitz-type protease …: GPPPAPPGLPAGADCLNSFTAGVPGFVLDTNASVSNGATFLESPTVRRGWDCVRACCTTQNCNLALVELQPDRGEDAIAACFLINCLYEQNFVCKFAPREGFINYLTREVYRSYRQLRTQGFGGSGIPKAWAGIDLKVQPQEPLVLKDVENTDWRLLRGDTDVRVERKDPNQVELWGLKEGTYLFQLTVTSSDHPEDTANVTVTVLSTKQTEDYCLASNKVGRCRGSFPRWYYDPTEQICKSFVYGGCLGNKNNYLREEECILACRGVQGGPLRGSSGAQATFPQGPSMERRHPVCSGTCQPTQFRCSNGCCIDSFLECDDTPNCPDASDEAACEKYTSGFDELQRIHFPSDKGHCVDLPDTGLCKESIPRWYYNPFSEHCARFTYGGCYGNKNNFEEEQQCLESCRGISKKDVFGLRREIPIPSTGSVEMAVAVFLVICIVVVVAILGYCFFKNQRKDFHGHHHHPPPTPASSTVSTTEDTEHLVYNHTTRPL
- competition for binding of MT-SP1 to sc95/96 coated plate: prevented the binding of MT-SP1 to the plate
